Source: article PMC5454378, “Histone deacetylase 10 structure and molecular function as a polyamine deacetylase” (Nature Communications, 2017)

Columns and labels:
Experiment in all cases: purified protein, by the assay type
[1] = substrate: CC(=O)NCCCCCCCCN; parameters: steady-state kinetics of acetylpolyamine deacetylation, discontinuous LC-MS after dansyl chloride derivatization
Experimental: (§1) To study steady-state kinetics with non-fluorogenic peptide substrates and acetylpolyamines, a discontinuous LC–MS was employed based on the protocol of assaying nonfluorogenic acetyllysine peptide substrates for HDAC6 (ref. [17]). Assays were performed in triplicate. Briefly, 5 μl of enzyme (0.050–20 μM) in HEPES buffer (20 mM HEPES (pH 7.5), 100 mM NaCl, 5 mM KCl, 1 mM MgCl2) was added to 35 μl of substrate solution to initiate the reaction. After incubation for 15–60 min at room temperature, the reaction was quenched by addition of 50 μl of 20 mM dansyl chloride dissolved in acetonitrile followed by 10 μl of NaHCO3 (1.6 M, pH 10.0). The deacetylation products were derivatized with dansyl chloride at 50 °C for 2 hrs. The deacetylation products were detected by LC–MS using a Waters SQD equipped with an Acquity UPLC (Waters, Milford, MA, USA) and quantified by using the standard curves generated from the mass signals of the corresponding deacetylated polyamines and peptides. Inhibition of HDAC10 activity was measured by using 0.49 μM zHDAC10 with 192 μM N^8-acetylspermidine. Data were analysed by logistic regression for IC50 determination and the inhibition constant Ki was calculated based on the Cheng-Prusoff equation, Ki=IC50 / (1+[S]/KM)[45]. Assays were performed in triplicate at room temperature. We next tested the PDAC activity of hHDAC10 and zHDAC10 against several polyamine substrates using the LC–MS assay (Fig. 2, Supplementary Fig. 3 and Supplementary Table 1). […] For hHDAC10 and zHDAC10, kcat/KM=2,900±200 and 4,600±300 M^−1 s^−1, respectively; in comparison, N^1-acetylspermidine was a poor substrate with kcat/KM=24±5 and 7±2 M^−1 s^−1, respectively. Substrate specificity trends observed for zHDAC10 and hHDAC10 matched those of the previously reported mammalian N^8-acetylspermidine deacetylase activity. […] As a negative control, we examined the N^8-acetylspermidine deacetylase activity of human and zebrafish HDAC6 (ref. [17]). HDAC6 preferentially catalyses the deacetylation of the peptide substrate RGK(ac)-AMC with a catalytic efficiency >100-fold greater than that for the deacetylation of N^8-acetylspermidine. Therefore, HDAC6 is clearly an acetyllysine deacetylase and HDAC10 is an N^8-acetylspermidine deacetylase. It is notable that the molecular function of HDAC10 coincides with the cellular function of the cytosolic PDAC indicated in Fig. 1a.

[2] = substrate: CC(=O)NCCCCCN; parameters: steady-state kinetics of acetylpolyamine deacetylation, discontinuous LC-MS after dansyl chloride derivatization
Experimental: as §1

[3] = substrate: CC(=O)NCCCCN; parameters: steady-state kinetics of acetylpolyamine deacetylation, discontinuous LC-MS after dansyl chloride derivatization
Experimental: as §1

[4] = substrate: CC(=O)NCCCCNCCCN; parameters: steady-state kinetics of acetylpolyamine deacetylation, discontinuous LC-MS after dansyl chloride derivatization
Experimental: as §1

[5] = substrate: CC(=O)NCCCCNCCCNC(C)=O; parameters: steady-state kinetics of acetylpolyamine deacetylation, discontinuous LC-MS after dansyl chloride derivatization
Experimental: as §1

[6] = substrate: CCCCNC(C)=O; parameters: steady-state kinetics of acetylpolyamine deacetylation, discontinuous LC-MS after dansyl chloride derivatization; details: 50.0 °C
Experimental: as §1

[7] = substrate: CC(=O)NCCCC[C@H](NC(C)=O)C(N)=O; parameters: discontinuous LC-MS deacetylation assay, dansylated product quantified, steady-state kinetics; details: 50.0 °C
Experimental: (§2) To study steady-state kinetics with non-fluorogenic peptide substrates and acetylpolyamines, a discontinuous LC–MS was employed based on the protocol of assaying nonfluorogenic acetyllysine peptide substrates for HDAC6 (ref. [17]). Assays were performed in triplicate. Briefly, 5 μl of enzyme (0.050–20 μM) in HEPES buffer (20 mM HEPES (pH 7.5), 100 mM NaCl, 5 mM KCl, 1 mM MgCl2) was added to 35 μl of substrate solution to initiate the reaction. […] The deacetylation products were derivatized with dansyl chloride at 50 °C for 2 hrs. The deacetylation products were detected by LC–MS using a Waters SQD equipped with an Acquity UPLC (Waters, Milford, MA, USA) and quantified by using the standard curves generated from the mass signals of the corresponding deacetylated polyamines and peptides. Inhibition of HDAC10 activity was measured by using 0.49 μM zHDAC10 with 192 μM N^8-acetylspermidine. Data were analysed by logistic regression for IC50 determination and the inhibition constant Ki was calculated based on the Cheng-Prusoff equation, Ki=IC50 / (1+[S]/KM)[45]. Assays were performed in triplicate at room temperature.

[8] = substrate: CC(=O)NCCCC[C@H](NC(=O)[C@H](C)NC(=O)CNC(C)=O)C(=O)Nc1ccc2c(C)cc(=O)oc2c1; parameters: fluorogenic AMC-conjugated acetyllysine peptide deacetylation, steady-state kinetics
Description: To determine steady-state kinetic parameters for the hydrolysis of a variety of acetylpolyamine and acetyllysine substrates, we prepared full-length recombinant HDAC10 from human (H. sapiens, hHDAC10) and zebrafish (D. rerio, zHDAC10). The CDs of these orthologues are highly similar based on 63%/79% sequence identity/similarity; only full-length constructs yielded soluble proteins. We first assayed the lysine deacetylase activity of these constructs against two commercially available aminomethylcoumarin (AMC)-conjugated fluorogenic acetyllysine peptides, GAK(ac)-AMC and RGK(ac)-AMC (molecular structures of all substrates are shown in Supplementary Fig. 2). […] These measurements were consistent with earlier studies reporting that HDAC10 activity was not measurable using fluorogenic peptide substrates. We also tested activity with 11 non-fluorogenic acetyllysine substrates using a […] chromatography–mass spectrometry (LC–MS)-based discontinuous assay[17] to avoid potential steric clashes that might occur with the bulky AMC group. These substrates included K(ac)NL and GAK(ac)NLQ, which mimic the peptide segment containing K73 in the proposed HDAC10 substrate MutS homologue 2 (MSH2)[22]. Again, we observed no or very low catalytic activity (Fig. 2 and Supplementary Table 1). In comparison with its closest relative, the cytosolic isozyme HDAC6 (ref. [17]), HDAC10 was clearly not an efficient lysine deacetylase.

[9] = substrate: CC(=O)NCCCNCCCCNCCCN; parameters: steady-state kinetics of acetylpolyamine deacetylation, discontinuous LC-MS after dansyl chloride derivatization
Experimental: as §1

[10] = substrate: CC(=O)NCCCC[C@H](NC(=O)[C@H](C)NC(C)=O)C(=O)N[C@@H](C)C(N)=O; parameters: discontinuous LC-MS deacetylation assay, dansylated product quantified, steady-state kinetics; details: 50.0 °C
Experimental: as §2

B1: zHDAC10 (Danio rerio) (protein)
chain: ASGSALIFDEEMSRYKLLWTDPACEIEVPERLTVSYEALRTHGLAQRCKAVPVRQATEQEILLAHSEEYLEAVKQTPGMNVEELMAFSKKYNDVYFHQNIYHCAKLAAGATLQLVDSVMKREVRNGMALVRPPGHHSQRSAANGFCVFNNVAIAALYAKKNYNLNRILIVDWDVHHGQGIQYCFEEDPSVLYFSWHRYEHQSFWPNLPESDYSSVGKGKGSGFNINLPWNKVGMTNSDYLAAFFHVLLPVAYEFDPELVIVSAGFDSAIGDPEGEMCALPEIFAHLTHLLMPLAAGKMCVVLEGGYNLTSLGQSVCQTVHSLLGDPTPRISGLGTACDSALESIQNVRNVQSSYWSSFKHLAQSETNPKRPRLDATNGGPKESSEPASESNPKKTAQDIVWPEPLKRMPASVRTVVVPPPGVELTLPKNCQHSGDISESTAKEVQRIRDKHFHDLTDQNILRSLGNIISVLDRMMRSDEVCNGCVVVSDLSVSVQCALQHALTEPAERVLVVYVGDGELPVKTNDGKVFLVQICTKETEDKCVNRLSLCLREGESLTAGFMQALLGLILPVAYEFNPALVLGIVGETAAKTGLMTVWGHMTCLIQGLARGRTLTLLQGYDKDLLELTVSALSGASISPLGPLRALKPEDVEMMEKQRQRLQERWGLLRCTVSES
notes: full-length, residues 2–675
Km ([1]; 50.0 °C): 170 ± 40 µM
kcat ([1]; 50.0 °C): 0.21 ± 0.02 s⁻¹
kcat/Km ([1]; 50.0 °C): 1200 ± 200 M⁻¹ s⁻¹
Km ([2]; 50.0 °C): 90 ± 30 µM
kcat ([2]; 50.0 °C): 0.37 ± 0.04 s⁻¹
kcat/Km ([2]; 50.0 °C): 3900 ± 300 M⁻¹ s⁻¹
Km ([3]; 50.0 °C): 160 ± 50 µM
kcat ([3]; 50.0 °C): 0.7 ± 0.1 s⁻¹
kcat/Km ([3]; 50.0 °C): 4200 ± 900 M⁻¹ s⁻¹
Km ([4]; 50.0 °C): 130 ± 20 µM
kcat ([4]; 50.0 °C): 0.58 ± 0.03 s⁻¹
kcat/Km ([4]; 50.0 °C): 4600 ± 300 M⁻¹ s⁻¹
Km ([5]; 50.0 °C): 180 ± 40 µM
kcat ([5]; 50.0 °C): 0.48 ± 0.08 s⁻¹
kcat/Km ([5]; 50.0 °C): 2700 ± 300 M⁻¹ s⁻¹
Km [6]: 900 ± 200 µM
kcat [6]: 0.06 ± 0.02 s⁻¹
kcat/Km [6]: 60 ± 20 M⁻¹ s⁻¹
Km [7]: 80 ± 10 µM
kcat [7]: 0.013 s⁻¹
kcat/Km [7]: 160 M⁻¹ s⁻¹
Km [8]: 22 ± 4 µM
kcat [8]: 0.00033 ± 2e-05 s⁻¹
kcat/Km [8]: 15 ± 2 M⁻¹ s⁻¹

B2: hHDAC10 (Homo sapiens) (protein)
chain: GTALVYHEDMTATRLLWDDPECEIERPERLTAALDRLRQRGLEQRCLRLSAREASEEELGLVHSPEYVSLVRETQVLGKEELQALSGQFDAIYFHPSTFHCARLAAGAGLQLVDAVLTGAVQNGLALVRPPGHHGQRAAANGFCVFNNVAIAAAHAKQKHGLHRILVVDWDVHHGQGIQYLFEDDPSVLYFSWHRYEHGRFWPFLRESDADAVGRGQGLGFTVNLPWNQVGMGNADYVAAFLHLLLPLAFEFDPELVLVSAGFDSAIGDPEGQMQATPECFAHLTQLLQVLAGGRVCAVLEGGYHLESLAESVCMTVQTLLGDPAPPLSGPMAPCQSALESIQSARAAQAPHWKSLQQQDVTAVPMSPSSHSPEGRPPPLLPGGPVCKAAASAPSSLLDQPCLCPAPSVRTAVALTTPDITLVLPPDVIQQEASALREETEAWARPHESLAREEALTALGKLLYLLDGMLDGQVNSGIAATPASAAAATLDVAVRRGLSHGAQRLLCVALGQLDRPPDLAHDGRSLWLNIRGKEAAALSMFHVSTPLPVMTGGFLSCILGLVLPLAYGFQPDLVLVALGPGHGLQGPHAALLAAMLRGLAGGRVLALLEENSTPQLAGILARVLNGEAPPSLGPSSVASPEDVQALMYLRGQLEPQWKMLQCHPHLVA
notes: full-length, residues 2–669, MBP fusion
kcat ([1]; 50.0 °C): 0.1 ± 0.02 s⁻¹
kcat/Km ([1]; 50.0 °C): 620 ± 50 M⁻¹ s⁻¹
Km ([1]; room temperature): 160 ± 40 µM
kcat ([2]; 50.0 °C): 0.14 ± 0.02 s⁻¹
kcat/Km ([2]; 50.0 °C): 1300 ± 200 M⁻¹ s⁻¹
Km ([2]; room temperature): 110 ± 20 µM
kcat ([3]; 50.0 °C): 0.35 ± 0.04 s⁻¹
kcat/Km ([3]; 50.0 °C): 2100 ± 300 M⁻¹ s⁻¹
Km ([3]; room temperature): 170 ± 50 µM
kcat ([4]; 50.0 °C): 0.28 ± 0.02 s⁻¹
kcat/Km ([4]; 50.0 °C): 2900 ± 200 M⁻¹ s⁻¹
Km ([4]; room temperature): 100 ± 10 µM
kcat ([5]; 50.0 °C): 0.14 ± 0.08 s⁻¹
kcat/Km ([5]; 50.0 °C): 900 ± 300 M⁻¹ s⁻¹
Km ([5]; room temperature): 150 ± 90 µM
kcat ([9]; 50.0 °C): 0.011 ± 0.002 s⁻¹
kcat/Km ([9]; 50.0 °C): 60 ± 10 M⁻¹ s⁻¹
Km ([9]; room temperature): 180 ± 20 µM
Km [10]: 60 ± 20 µM
kcat [10]: 0.0006 ± 0.0001 s⁻¹
kcat/Km [10]: 11 ± 3 M⁻¹ s⁻¹
Km [7]: 140 ± 40 µM
kcat [7]: 0.0092 ± 0.0008 s⁻¹
kcat/Km [7]: 66 ± 5 M⁻¹ s⁻¹
Km [8]: 10 ± 1 µM
kcat [8]: 0.00038 ± 2e-05 s⁻¹
kcat/Km [8]: 38 ± 2 M⁻¹ s⁻¹
